Experimental data reported in publication PMC10408046, “Specific detection of tau seeding activity in Alzheimer’s disease using rationally designed biosensor cells” (Molecular Neurodegeneration, 2023).

Tests used:
[1] = target: pseudoacetylated tau (244:378) P301L 3xKQ probe with (EAAAK)3 linker to mTurquoise2 or mNeonGreen (UniProt P10636)
[2] = target: the molecule itself; assay: FRET or BRET; FRET between the two differently labelled copies of the probe, read by flow cytometry; HEK293T transiently transfected, exposed 24 h to serial dilutions of human AD brain extract with Lipofectamine 2000 (1% vol/vol) in Opti-MEM

Sequence of seeding-competent tau from human Alzheimer's disease brain (P10636 whole entry): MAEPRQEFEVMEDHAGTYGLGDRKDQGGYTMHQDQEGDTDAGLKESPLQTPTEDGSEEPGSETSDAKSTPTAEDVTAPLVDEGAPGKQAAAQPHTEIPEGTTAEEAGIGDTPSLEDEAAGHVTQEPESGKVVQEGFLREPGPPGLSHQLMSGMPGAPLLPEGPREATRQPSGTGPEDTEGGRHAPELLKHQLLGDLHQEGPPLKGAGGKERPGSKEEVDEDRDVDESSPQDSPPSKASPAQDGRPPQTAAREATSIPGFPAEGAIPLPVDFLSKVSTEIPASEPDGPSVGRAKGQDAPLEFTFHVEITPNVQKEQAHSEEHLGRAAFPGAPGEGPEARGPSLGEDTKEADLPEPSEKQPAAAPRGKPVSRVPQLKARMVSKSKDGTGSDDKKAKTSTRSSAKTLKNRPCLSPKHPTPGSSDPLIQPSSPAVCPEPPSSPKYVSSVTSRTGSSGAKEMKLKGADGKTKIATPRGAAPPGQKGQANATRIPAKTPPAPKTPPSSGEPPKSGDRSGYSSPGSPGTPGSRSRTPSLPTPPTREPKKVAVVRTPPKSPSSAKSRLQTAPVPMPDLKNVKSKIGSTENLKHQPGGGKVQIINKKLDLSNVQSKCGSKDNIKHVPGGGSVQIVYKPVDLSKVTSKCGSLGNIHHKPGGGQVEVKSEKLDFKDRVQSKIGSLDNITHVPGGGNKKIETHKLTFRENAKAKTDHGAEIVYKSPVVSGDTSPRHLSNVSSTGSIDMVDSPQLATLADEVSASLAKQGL

Row | seeding signal (FRET, flow cytometry) in the novel biosensor HEK293T clone 18: tau-immunodepleted AD brain material against the starting material [1] | Molecule | fold increase in FRET-positive cells against the probe without 3xKQ [2]
1 | 82.3% | seeding-competent tau from human Alzheimer's disease brain (from UniProt P10636 1-758) (natural protein) | 
2 |  | pseudoacetylated tau (244:378) P301L 3xKQ probe with (EAAAK)3 linker to mTurquoise2 or mNeonGreen (domain or fragment, microtubule associated protein tau, amino acids 244 to 378, P301L and lysines 311, 317 and 321 changed to glutamines to mimic acetylation (3xKQ); Both labelled copies come from one construct with a T2A self-cleaving peptide; a small amount of uncleaved polypeptide was seen by western blot; also called 3xKQ mutant; pseudoacetylated (EAAAK)3 probe; source: HEK293T, transiently transfected, in cells) QTAPVPMPDLKNVKSKIGSTENLKHQPGGGKVQIINKKLDLSNVQSKCGSKDNIKHVLGGGSVQIVYQPVDLSQVTSQCGSLGNIHHKPGGGQVEVKSEKLDFKDRVQSKIGSLDNITHVPGGGNKKIETHKLTFEAAAKEAAAKEAAAK | ~3 fold
